Assay results taken from patent US8956838B2, “Carboxyl esterase polypeptides” (B.R.A.I.N., priority 2006, dated 2015).

What was measured:
Format in all cases: biochemical
[1] = Enzyme activity with pNP-acylesters of different chain length; conditions: 4 mM, 45° C., pH 7.2
Experimental: Enzyme activity tests were performed by incubating the enzyme with 4 mM substrate at 45° C. in 100 mM Tris-HCl buffer at pH 7.2, unless otherwise indicated. The reaction was measured at 410 nm. One unit is defined as the amount of enzyme catalyzing the appearance of 1 μmol of free p-nitrophenol/min. Enzyme activity against pNP-acylesters (butyrate, valerate, caproate, octanoate, decanoate and palmitate) was tested under the above conditions. […] The enzyme according to SEQ ID NO: 6 converted pNP-caproate with a specific activity of 80.0 U/mg.

[2] = Titration assay with triglycerides; conditions: 10 mM, 37° C., pH 7.0
Experimental: (§1) Enzyme activities on the substrates triacetin, tripropionin, tributyrin, tricaprylene, trilaurin and vinyl-substrates (vinyl-acetate, ˜propionate, ˜butyrate, ˜caproate, ˜caprylate and ˜laurate) were determined using a standard titration assay with minor modifications. Tests were performed with a Methrom 718 STAT potentiometric titrator (Herisau, Switzerland) and by using 10 mM NaOH for titration. The substrates at 10 mM concentration were emulsified in 20 ml reaction buffer containing 2 mM Tris/HCl pH 7.0. After addition of 7.5 μg of the purified enzyme the NaOH consumption was recorded at a reaction temperature of 37° C. One unit was defined as the amount of enzyme that released […] of fatty acid per min.

[3] = Titration assay with vinyl acid esters; conditions: 10 mM, 37° C., pH 7.0
Experimental: as §1

[4] = Solvent stability, residual activity; conditions: for Residual activity after 1 h incubation in the presence of solvent: 1 h at 30° C., measured at 45° C.; for activity in the presence of solvent, levels up to: both concentrations (15% and 30% v/v)
Experimental: The stability of the enzymes was determined in the presence of the following solvents: DMSO, isopropanol, methanol, dimethylformamide, acetone and acetonitrile. The enzymes were incubated for 1 hour at 30° C. in the presence of either 15% (v/v) or 30% (v/v) of the solvents and the residual activity was measured at 45° C. The substrate used was pNP-butyrate.

[5] = Substrate specificity on pNP-substrates with importance for pharmaceutical products; conditions: 30 minute, 40° C., pH 7.5
Experimental: The substrate range of the two enzymes was determined using pNP esters of the following: benzoate, 2-(4-isobutylphenyl)propanoate (Ibuprofen), 2-phenylpropanoate, 3-phenylbutanoate, cyclohexanoate, 2-(3-benzoylphenyl)propanoate, 2-naphthoate, 1-naphthoate, adamantanoate and 2-(6-methoxynaphthalene-2-yl)propanoate (Naproxen). Activity was determined at 410 nm after 30 minute incubation at 40° C. The reaction mixture was 950 μl buffer (100 mM Tris, pH 7.5), 50 μl substrate (5 mg/ml in DMSO) and 1 μg enzyme.

[6] = Effect of bivalent cations and EDTA on catalytic activity
[7] = Determination of pH optimum by titration; conditions: incubation for up to 48 hours, up to pH 12 (data not shown)
Experimental: The pH optimum for the enzymes was determined using tributyrin as substrate. The incubation conditions were 20 ml buffer (2.5 mM phosphate buffer [pH 4-7], 2.5 mM Tris/HCl buffer [pH 7-11] or 2.5 mM glycine buffer [pH 9-11], supplemented with 100 mM NaCl) stirred at a constant temperature of 37° C. The esterase substrate tributyrin (final concentration of 2 mM) was added to 5 ml of the corresponding buffer at 37° C., emulsified and added to the whole preparation. This substrate emulsion was held constant at the correct pH automatically by the titrator (718 STAT Titrino; Metrohm, Herisau, Switzerland) for 2 min and this served as the control. […]

[8] = Determination of thermal stability
Experimental: To assay the thermostability of the enzymes they were incubated at different temperatures for one hour and the residual activity assayed at 10 minute intervals. Residual activity was measured using pNP-caproate as substrate as described above.

B1: EstA3: recombinant enzyme having carboxyl esterase activity, amino acid sequence SEQ ID NO: 2, family VIII of bacterial lipolytic enzymes (protein)
chain: MSAEELGFLPDRLARISDHIQTNYLDNGKLPFASLLIGRGDDIALQWSSGVADDAIFRIASMTKPVTSVAFMQLVEQGKVALTDPVAKYIPEFAKLGVFVAGGGNIPFVSRPPTMPMRIVDVLRHTTGFTYSFQERSNIDAAYRKTDVESWTRSTSQSFIDTLAEIPLEFDPGTQWNYSVSTDVLGILIERISGQSLPDYFRDHIFAPLGMVDTCFTVPADKAARIPQCFAFDPATKMKLFDEAGASSLWTKGWSFNSGGGGLASSVADYHRFCRMLLNGGALDGIQIISPKTLELMTANHLPGGQDLTQMSKSLFSEAEMAGIGFGLGFATTIDSVATLTPCSTGDFYWGGMYSTAFFVDPVEDIIMIFMTQLMPSSTYPVRREIKTMIYSALAA
modifications: metagenomic sequence
Molecule B1 has a specific activity ([1]; substrate pNP-butyrate (C4)) of 513.6 U/mg, a specific activity ([1]; substrate pNP-caproate (C6)) of 425.7 U/mg and a specific activity ([1]; substrate pNP-decanoate (C10)) of 0 U/mg. For the same molecule, the specific activity ([1]; substrate pNP-octanoate (C8)) was 3.6 U/mg, the specific activity ([1]; substrate pNP-palmitate (C16)) was 0 U/mg and the specific activity ([1]; substrate pNP-valerate (C5)) was 425.7 U/mg. For the same molecule, the specific activity ([2]; substrate triacetin (C2)) was 147.5 U/mg, the specific activity ([2]; substrate tributyrin (C4)) was 167.5 U/mg and the specific activity ([3]; substrate vinyl acetate (C2)) was 107.5 U/mg. For the same molecule, the specific activity ([3]; substrate vinyl butyrate (C4)) was 387.5 U/mg, the specific activity ([3]; substrate vinyl caproate (C6)) was 237.5 U/mg and the specific activity ([3]; substrate vinyl caprylate (C8)) was 155.0 U/mg. The specific activity ([3]; substrate vinyl laurinate (C12)) was 7.5 U/mg, the specific activity ([3]; substrate vinyl propionate (C3)) was 380.0 U/mg and the “Residual activity after 1 h incubation in the presence of solvent” value (“Residual activity after 1 h incubation” for short) ([4]; 15% (v/v) Acetone) was 152%. The “Residual activity after 1 h incubation” value ([4]; 15% (v/v) Acetonitrile) was 110%, the “Residual activity after 1 h incubation” value ([4]; 15% (v/v) DMSO) was 102% and the “Residual activity after 1 h incubation” value ([4]; 15% (v/v) Dimethylformamid) was 125%. The “Residual activity after 1 h incubation” value ([4]; 15% (v/v) Isopropanol) was 155%, the “Residual activity after 1 h incubation” value ([4]; 15% (v/v) Methanol) was 111% and the “Residual activity after 1 h incubation” value ([4]; 30% (v/v) Acetone) was 155%. The “Residual activity after 1 h incubation” value ([4]; 30% (v/v) Acetonitrile) was 87%, the “Residual activity after 1 h incubation” value ([4]; 30% (v/v) DMSO) was 104% and the “Residual activity after 1 h incubation” value ([4]; 30% (v/v) Dimethylformamid) was 128%. For the same molecule, the “Residual activity after 1 h incubation” value ([4]; 30% (v/v) Isopropanol) was 117%, the “Residual activity after 1 h incubation” value ([4]; 30% (v/v) Methanol) was 130% and the “activity in the presence of solvent, levels up to” value ([4]; acetone) was at most 155%. The “activity in the presence of solvent, levels up to” value ([4]; dimethylformamide) was “up to 128%”, the specific activity ([5]; pNP-ester of 1-naphthoate) was 0 U/mg and the specific activity ([5]; pNP-ester of 2-(3-benzoylphenyl) propanoate) was 26.7 U/mg. The specific activity ([5]; pNP-ester of 2-(4-isobutylphenyl) propanoate (Ibuprofen)) was 7.2 U/mg, the specific activity ([5]; pNP-ester of 2-(6-methoxy-naphthalen-2-yl) propanoate (Naproxen)) was 26.7 U/mg and the specific activity ([5]; pNP-ester of 2-naphthoate) was 0 U/mg. The specific activity ([5]; pNP-ester of 2-phenylpropanoate) was 21.0 U/mg, the specific activity ([5]; pNP-ester of 3-phenylbutanoate) was 31.6 U/mg and the specific activity ([5]; pNP-ester of adamantanoate) was 0 U/mg. The specific activity ([5]; pNP-ester of benzoate) was 9.4 U/mg, the specific activity ([5]; pNP-ester of cyclohexanoate) was 50.0 U/mg and the “effect on activity, in words” value ([6]; Ca^2+, Cu2+, Mg^2+, Zn^2+, Rb^2+ and EDTA) was “inhibitory effect”. For the same molecule, the “stimulation of catalytic activity” value ([6]; in the presence of Co^2+) was “about 130%”, the “stability under alkaline conditions, in words” value [7] was “extremely stable with little loss of activity” and the “thermal stability, in words” value ([8]; incubated for at least 60 minutes at 40° C.) was “without a major loss of activity”. The “thermal stability, in words” value ([8]; incubation at temperatures above 45° C. for more than 60 minutes (data not shown)) was “rapid inactivation”.
